Read-outs that look alike come from different tables or passages of the source. Numbered stars: 1 amine (or outer) side, 2 acyl side, 3 side chain; on linkers, the order of the positions; unused ones are H or OH. Bridge positions count the residues as written; N and C are the ends. * marks the point of attachment. C20 diacid = O=C(O)CCCCCCCCCCCCCCCCCCC(=O)*; γGlu = O=C(O)[C@H](CCC(=O)[*:2])N[*:1]
T1: human calcitonin receptor (human, UniProt P30988 25-474)
T1 sequence (looked up): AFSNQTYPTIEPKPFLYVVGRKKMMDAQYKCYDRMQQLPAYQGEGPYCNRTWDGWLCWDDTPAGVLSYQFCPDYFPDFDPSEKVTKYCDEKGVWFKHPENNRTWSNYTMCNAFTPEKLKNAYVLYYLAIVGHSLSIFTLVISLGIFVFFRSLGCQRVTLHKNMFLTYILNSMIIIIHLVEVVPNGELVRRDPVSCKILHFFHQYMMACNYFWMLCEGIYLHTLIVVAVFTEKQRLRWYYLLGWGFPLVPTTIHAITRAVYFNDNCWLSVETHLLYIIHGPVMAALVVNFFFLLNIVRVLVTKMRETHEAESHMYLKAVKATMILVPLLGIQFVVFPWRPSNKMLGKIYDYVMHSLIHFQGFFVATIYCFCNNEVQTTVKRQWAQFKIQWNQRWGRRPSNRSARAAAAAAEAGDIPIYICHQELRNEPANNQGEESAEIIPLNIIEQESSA

T2: human amylin 3(a) receptor (human calcitonin receptor co-expressed with RAMP-3) (human, UniProt P30988 25-474; O60896 24-148, limits assumed)
T2 sequence (looked up) 1: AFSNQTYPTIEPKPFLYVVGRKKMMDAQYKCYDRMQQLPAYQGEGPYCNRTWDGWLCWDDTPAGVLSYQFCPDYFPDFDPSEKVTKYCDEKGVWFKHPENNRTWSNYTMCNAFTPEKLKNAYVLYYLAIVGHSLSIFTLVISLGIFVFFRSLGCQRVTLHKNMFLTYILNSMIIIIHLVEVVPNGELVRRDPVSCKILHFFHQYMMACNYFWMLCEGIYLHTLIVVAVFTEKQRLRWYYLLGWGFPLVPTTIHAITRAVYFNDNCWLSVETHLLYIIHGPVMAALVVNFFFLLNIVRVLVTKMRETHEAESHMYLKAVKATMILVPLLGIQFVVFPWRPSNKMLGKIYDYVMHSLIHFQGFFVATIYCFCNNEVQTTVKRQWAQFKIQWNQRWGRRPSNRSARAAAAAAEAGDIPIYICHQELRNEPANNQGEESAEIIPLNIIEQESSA
T2 sequence (looked up) 2: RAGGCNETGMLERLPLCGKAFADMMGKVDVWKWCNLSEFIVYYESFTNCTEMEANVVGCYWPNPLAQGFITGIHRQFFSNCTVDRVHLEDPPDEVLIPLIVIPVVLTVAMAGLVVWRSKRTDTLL

T3: human calcitonin receptor (human, UniProt P30988 25-474)
T3 sequence (looked up): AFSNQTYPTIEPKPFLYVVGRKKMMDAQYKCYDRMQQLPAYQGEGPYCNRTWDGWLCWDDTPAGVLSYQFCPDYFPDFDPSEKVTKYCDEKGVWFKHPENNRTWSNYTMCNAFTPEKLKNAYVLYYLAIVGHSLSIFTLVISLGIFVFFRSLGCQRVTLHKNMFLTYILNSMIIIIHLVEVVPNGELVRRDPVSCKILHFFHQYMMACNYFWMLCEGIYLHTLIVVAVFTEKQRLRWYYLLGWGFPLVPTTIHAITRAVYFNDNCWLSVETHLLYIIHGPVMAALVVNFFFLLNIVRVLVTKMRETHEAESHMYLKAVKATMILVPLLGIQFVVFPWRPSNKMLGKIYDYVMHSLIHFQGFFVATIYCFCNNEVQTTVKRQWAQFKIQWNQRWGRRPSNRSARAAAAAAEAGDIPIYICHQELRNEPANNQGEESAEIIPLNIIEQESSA


Assays:
Assay in all cases: cell-based or functional assay
[1] = target: T1, human calcitonin receptor
[2] = target: T2, human amylin 3(a) receptor (human …)
[3] = target: T3, human calcitonin receptor; remark: listed apart in the source

Binder	hCTR funct. EC50 [1]	Ratio hCT/hAmylin funct. [1]	hAmylin-R funct. EC50 [2]	Ratio hCT/hAmylin funct. [3]	hCTR funct. EC50 [3]
KCNTATCATQRLANFLRHSSPNFGAIPSSTNVGSNTY (N-terminal alpha-amino acylated with C20 diacid-gGlu-2xOEG; Cys2-Cys7 disulfide; C-terminal amide, analogue of human amylin; also called compound 24)	10 nM	–	–	–	–
KCNTATCATQRLANFLRHSSPNFGAIPSSTNVGRNTY (N-terminal alpha-amino acylated with C20 diacid-gGlu; Cys2-Cys7 disulfide; C-terminal amide, analogue of human amylin; also called compound 39) [N^α1-[(4S)-4-carboxy-4-(19-carboxynonadecanoylamino)butanoyl]-[Arg17,Pro21,Pro27,Arg34]-h-amylin]	2.52 nM	–	–	–	–
{C20 diacid-γGlu}-GRCNTATCATQRLAAFLRHSSPNFGAIPSSTNVGHNTY-NH2 (disulfide 3-8; SMILES CC[C@H](C)[C@H](NC(=O)[C@H](C)NC(=O)CNC(=O)[C@H](Cc1ccccc1)NC(=O)[C@H](CC(N)=O)NC(=O)[C@@H]1CCCN1C(=O)[C@H](CO)NC(=O)[C@H](CO)NC(=O)[C@H](Cc1c[nH]cn1)NC(=O)[C@H](CCCNC(=N)N)NC(=O)[C@H](CC(C)C)NC(=O)[C@H](Cc1ccccc1)NC(=O)[C@H](C)NC(=O)[C@H](C)NC(=O)[C@H](CC(C)C)NC(=O)[C@H](CCCNC(=N)N)NC(=O)[C@H](CCC(N)=O)NC(=O)[C@@H](NC(=O)[C@H](C)NC(=O)[C@@H]1CSSC[C@H](NC(=O)[C@H](CCCNC(=N)N)NC(=O)CNC(=O)CC[C@H](NC(=O)CCCCCCCCCCCCCCCCCCC(=O)O)C(=O)O)C(=O)N[C@@H](CC(N)=O)C(=O)N[C@@H]([C@@H](C)O)C(=O)N[C@@H](C)C(=O)N[C@@H]([C@@H](C)O)C(=O)N1)[C@@H](C)O)C(=O)N1CCC[C@H]1C(=O)N[C@@H](CO)C(=O)N[C@@H](CO)C(=O)N[C@H](C(=O)N[C@@H](CC(N)=O)C(=O)N[C@H](C(=O)NCC(=O)N[C@@H](Cc1c[nH]cn1)C(=O)N[C@@H](CC(N)=O)C(=O)N[C@H](C(=O)N[C@@H](Cc1ccc(O)cc1)C(N)=O)[C@@H](C)O)C(C)C)[C@@H](C)O)	–	–	0.109 nM	4.9	0.537 nM
{C20 diacid-γGlu}-GRCNTATCATQRLAHFLRHSSPNFGAIPSSTNVGSNTY-NH2 (disulfide 3-8; SMILES CC[C@H](C)[C@H](NC(=O)[C@H](C)NC(=O)CNC(=O)[C@H](Cc1ccccc1)NC(=O)[C@H](CC(N)=O)NC(=O)[C@@H]1CCCN1C(=O)[C@H](CO)NC(=O)[C@H](CO)NC(=O)[C@H](Cc1c[nH]cn1)NC(=O)[C@H](CCCNC(=N)N)NC(=O)[C@H](CC(C)C)NC(=O)[C@H](Cc1ccccc1)NC(=O)[C@H](Cc1c[nH]cn1)NC(=O)[C@H](C)NC(=O)[C@H](CC(C)C)NC(=O)[C@H](CCCNC(=N)N)NC(=O)[C@H](CCC(N)=O)NC(=O)[C@@H](NC(=O)[C@H](C)NC(=O)[C@@H]1CSSC[C@H](NC(=O)[C@H](CCCNC(=N)N)NC(=O)CNC(=O)CC[C@H](NC(=O)CCCCCCCCCCCCCCCCCCC(=O)O)C(=O)O)C(=O)N[C@@H](CC(N)=O)C(=O)N[C@@H]([C@@H](C)O)C(=O)N[C@@H](C)C(=O)N[C@@H]([C@@H](C)O)C(=O)N1)[C@@H](C)O)C(=O)N1CCC[C@H]1C(=O)N[C@@H](CO)C(=O)N[C@@H](CO)C(=O)N[C@H](C(=O)N[C@@H](CC(N)=O)C(=O)N[C@H](C(=O)NCC(=O)N[C@@H](CO)C(=O)N[C@@H](CC(N)=O)C(=O)N[C@H](C(=O)N[C@@H](Cc1ccc(O)cc1)C(N)=O)[C@@H](C)O)C(C)C)[C@@H](C)O, also called compound 99)	–	–	0.082 nM	10	0.818 nM

Continued, values first:

hCTR funct. EC50 [1]	Ratio hCT/hAmylin funct. [1]	hAmylin-R funct. EC50 [2]	Ratio hCT/hAmylin funct. [3]	hCTR funct. EC50 [3]	Binder
2.68 nM	–	–	–	–	KCNTATCATQRLANFLRHSSPNFGAIPSSTNVGHNTY (N-terminal alpha-amino acylated with C20 diacid-gGlu; Cys2-Cys7 disulfide; C-terminal amide, analogue of human amylin; also called compound 40) [N^α1-[(4S)-4-carboxy-4-(19-carboxynonadecanoylamino)butanoyl]-[Arg17,Pro21,Pro27,His34]-h-amylin]
5.32 nM	–	–	–	–	KCNTATCATQRLAEFLRHSSPNFGAIPSSTNVGSNTY (N-terminal alpha-amino acylated with C20 diacid-gGlu-2xOEG; Cys2-Cys7 disulfide; C-terminal amide, analogue of human amylin; also called compound 19)
1.68 nM	12.6	–	–	–	{C20 diacid-γGlu}-KCNTATCATQRLAHFLRHSSPNFGAIPSSTNVGSETY-NH2 (disulfide 2-7; SMILES CC[C@H](C)[C@H](NC(=O)[C@H](C)NC(=O)CNC(=O)[C@H](Cc1ccccc1)NC(=O)[C@H](CC(N)=O)NC(=O)[C@@H]1CCCN1C(=O)[C@H](CO)NC(=O)[C@H](CO)NC(=O)[C@H](Cc1c[nH]cn1)NC(=O)[C@H](CCCNC(=N)N)NC(=O)[C@H](CC(C)C)NC(=O)[C@H](Cc1ccccc1)NC(=O)[C@H](Cc1c[nH]cn1)NC(=O)[C@H](C)NC(=O)[C@H](CC(C)C)NC(=O)[C@H](CCCNC(=N)N)NC(=O)[C@H](CCC(N)=O)NC(=O)[C@@H](NC(=O)[C@H](C)NC(=O)[C@@H]1CSSC[C@H](NC(=O)[C@H](CCCCN)NC(=O)CC[C@H](NC(=O)CCCCCCCCCCCCCCCCCCC(=O)O)C(=O)O)C(=O)N[C@@H](CC(N)=O)C(=O)N[C@@H]([C@@H](C)O)C(=O)N[C@@H](C)C(=O)N[C@@H]([C@@H](C)O)C(=O)N1)[C@@H](C)O)C(=O)N1CCC[C@H]1C(=O)N[C@@H](CO)C(=O)N[C@@H](CO)C(=O)N[C@H](C(=O)N[C@@H](CC(N)=O)C(=O)N[C@H](C(=O)NCC(=O)N[C@@H](CO)C(=O)N[C@@H](CCC(=O)O)C(=O)N[C@H](C(=O)N[C@@H](Cc1ccc(O)cc1)C(N)=O)[C@@H](C)O)C(C)C)[C@@H](C)O, analogue of human amylin; also called compound 30)
–	–	0.062 nM	2.9	0.179 nM	{C20 diacid-γGlu}-GRCNTATCATQRLAHFLRHSSPNFGAIPSSTNVGPNTY-NH2 (disulfide 3-8; SMILES CC[C@H](C)[C@H](NC(=O)[C@H](C)NC(=O)CNC(=O)[C@H](Cc1ccccc1)NC(=O)[C@H](CC(N)=O)NC(=O)[C@@H]1CCCN1C(=O)[C@H](CO)NC(=O)[C@H](CO)NC(=O)[C@H](Cc1c[nH]cn1)NC(=O)[C@H](CCCNC(=N)N)NC(=O)[C@H](CC(C)C)NC(=O)[C@H](Cc1ccccc1)NC(=O)[C@H](Cc1c[nH]cn1)NC(=O)[C@H](C)NC(=O)[C@H](CC(C)C)NC(=O)[C@H](CCCNC(=N)N)NC(=O)[C@H](CCC(N)=O)NC(=O)[C@@H](NC(=O)[C@H](C)NC(=O)[C@@H]1CSSC[C@H](NC(=O)[C@H](CCCNC(=N)N)NC(=O)CNC(=O)CC[C@H](NC(=O)CCCCCCCCCCCCCCCCCCC(=O)O)C(=O)O)C(=O)N[C@@H](CC(N)=O)C(=O)N[C@@H]([C@@H](C)O)C(=O)N[C@@H](C)C(=O)N[C@@H]([C@@H](C)O)C(=O)N1)[C@@H](C)O)C(=O)N1CCC[C@H]1C(=O)N[C@@H](CO)C(=O)N[C@@H](CO)C(=O)N[C@H](C(=O)N[C@@H](CC(N)=O)C(=O)N[C@H](C(=O)NCC(=O)N1CCC[C@H]1C(=O)N[C@@H](CC(N)=O)C(=O)N[C@H](C(=O)N[C@@H](Cc1ccc(O)cc1)C(N)=O)[C@@H](C)O)C(C)C)[C@@H](C)O)
–	–	0.07 nM	2.1	0.148 nM	{C20 diacid-γGlu}-GRCNTATCATQRLAAFLRHSSPNFGAIPSSTNVGPNTY-NH2 (disulfide 3-8)

From patent US20140087995A1 (published 2014)
